Laboratory results as given in US20250215412A1 (NOVOZYMES A S, published 2025).
Where a chain is given by its changes, count along the chain named. Numbers in names are those of the source.

T1: Chryseobacterium sp-62563 deamidase polypeptide (second polypeptide, deamidase domain), wildtype (Chryseobacterium sp-62563)
T1 sequence: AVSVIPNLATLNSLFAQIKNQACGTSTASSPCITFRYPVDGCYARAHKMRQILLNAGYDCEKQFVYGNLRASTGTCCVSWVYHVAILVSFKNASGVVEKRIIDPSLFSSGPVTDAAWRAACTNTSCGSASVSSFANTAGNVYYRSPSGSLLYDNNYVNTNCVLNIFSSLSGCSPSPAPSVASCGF

B1: Chryseobacterium sp-62563 propeptide P69S (protein)
chain: NQDPNLVAKESNETAMKDFGKTVPVGIEKEDGKFKISFMVTAQPYEIKDSKENAAYISMIKTAVENETSIHVFLKANTNEIAKVDKATDDDIRYFKSVFTKEVKEENRK
B2: Chryseobacterium sp-62563 propeptide I92G (protein)
chain: B1 chain with S69P, I92G
B3: Chryseobacterium sp-62563 propeptide K96E (protein)
chain: B1 chain with S69P, K96E
B4: Chryseobacterium sp-62563 propeptide K96H (protein)
chain: B1 chain with S69P, K96H
B5: Chryseobacterium sp-62563 propeptide Y94K (protein)
chain: B1 chain with S69P, Y94K
B6: Chryseobacterium sp-62563 propeptide T88R (protein)
chain: B1 chain with S69P, T88R
B7: Chryseobacterium sp-62563 propeptide E67V (protein)
chain: B1 chain with E67V, S69P
B8: Chryseobacterium sp-62563 propeptide E67R (protein)
chain: B1 chain with E67R, S69P
B9: Chryseobacterium sp-62563 propeptide E67K (protein)
chain: B1 chain with E67K, S69P
B10: Chryseobacterium sp-62563 propeptide F95R (protein)
chain: B1 chain with S69P, F95R
B11: Chryseobacterium sp-62563 propeptide T88F (protein)
chain: B1 chain with S69P, T88F
B12: Chryseobacterium sp-62563 propeptide I92M (protein)
chain: B1 chain with S69P, I92M
B13: Chryseobacterium sp-62563 propeptide T88I (protein)
chain: B1 chain with S69P, T88I
B14: Chryseobacterium sp-62563 propeptide F95L (protein)
chain: B1 chain with S69P, F95L
B15: Chryseobacterium sp-62563 propeptide I92A (protein)
chain: B1 chain with S69P, I92A
B16: Chryseobacterium sp-62563 propeptide E67H (protein)
chain: B1 chain with E67H, S69P
B17: Chryseobacterium sp-62563 propeptide E67L (protein)
chain: B1 chain with E67L, S69P
B18: Chryseobacterium sp-62563 propeptide E67S (protein)
chain: B1 chain with E67S, S69P
B19: Chryseobacterium sp-62563 propeptide E67F (protein)
chain: B1 chain with E67F, S69P
B20: Chryseobacterium sp-62563 propeptide F73E (protein)
chain: B1 chain with S69P, F73E
B21: Chryseobacterium sp-62563 propeptide T88H (protein)
chain: B1 chain with S69P, T88H
B22: Chryseobacterium sp-62563 propeptide F95Y (protein)
chain: B1 chain with S69P, F95Y
B23: Chryseobacterium sp-62563 propeptide D91H (protein)
chain: B1 chain with S69P, D91H
B24: Chryseobacterium sp-62563 propeptide E67M (protein)
chain: B1 chain with E67M, S69P
B25: Chryseobacterium sp-62563 propeptide I92S (protein)
chain: B1 chain with S69P, I92S
B26: Chryseobacterium sp-62563 propeptide F95S (protein)
chain: B1 chain with S69P, F95S
B27: Chryseobacterium sp-62563 propeptide T88V (protein)
chain: B1 chain with S69P, T88V
B28: Chryseobacterium sp-62563 propeptide E67G (protein)
chain: B1 chain with E67G, S69P
B29: Chryseobacterium sp-62563 propeptide T88G (protein)
chain: B1 chain with S69P, T88G
B30: Chryseobacterium sp-62563 propeptide D91M (protein)
chain: B1 chain with S69P, D91M
B31: Chryseobacterium sp-62563 propeptide E67D (protein)
chain: B1 chain with E67D, S69P
B32: Chryseobacterium sp-62563 propeptide F95A (protein)
chain: B1 chain with S69P, F95A
B33: Chryseobacterium sp-62563 propeptide F95M (protein)
chain: B1 chain with S69P, F95M
B34: Chryseobacterium sp-62563 propeptide P69T (protein)
chain: B1 chain with S69T
B35: Chryseobacterium sp-62563 propeptide D91G (protein)
chain: B1 chain with S69P, D91G
B36: Chryseobacterium sp-62563 propeptide K96F (protein)
chain: B1 chain with S69P, K96F
B37: Chryseobacterium sp-62563 propeptide F95V (protein)
chain: B1 chain with S69P, F95V
B38: Chryseobacterium sp-62563 propeptide F95W (protein)
chain: B1 chain with S69P, F95W
B39: Chryseobacterium sp-62563 propeptide Y94R (protein)
chain: B1 chain with S69P, Y94R
B40: Chryseobacterium sp-62563 propeptide K96I (protein)
chain: B1 chain with S69P, K96I
B41: Chryseobacterium sp-62563 propeptide F95I (protein)
chain: B1 chain with S69P, F95I
B42: Chryseobacterium sp-62563 propeptide D91Q (protein)
chain: B1 chain with S69P, D91Q
B43: Chryseobacterium sp-62563 propeptide D91S (protein)
chain: B1 chain with S69P, D91S
B44: Chryseobacterium sp-62563 propeptide I92K (protein)
chain: B1 chain with S69P, I92K
B45: Chryseobacterium sp-62563 propeptide F95T (protein)
chain: B1 chain with S69P, F95T
B46: Chryseobacterium sp-62563 propeptide I92L (protein)
chain: B1 chain with S69P, I92L
B47: Chryseobacterium sp-62563 propeptide E67I (protein)
chain: B1 chain with E67I, S69P
B48: Chryseobacterium sp-62563 propeptide F95K (protein)
chain: B1 chain with S69P, F95K
B49: Chryseobacterium sp-62563 propeptide F95H (protein)
chain: B1 chain with S69P, F95H
B50: Chryseobacterium sp-62563 propeptide E67W (protein)
chain: B1 chain with E67W, S69P
B51: Chryseobacterium sp-62563 propeptide E67T (protein)
chain: B1 chain with E67T, S69P
B52: Chryseobacterium sp-62563 propeptide F95N (protein)
chain: B1 chain with S69P, F95N
B53: Chryseobacterium sp-62563 propeptide K96C (protein)
chain: B1 chain with S69P, K96C
B54: Chryseobacterium sp-62563 propeptide T88K (protein)
chain: B1 chain with S69P, T88K

The binders below were run against T1, Chryseobacterium sp-62563 deamidase polypeptide (second polypeptide, deamidase domain), wildtype (Chryseobacterium sp-62563) (assay: cell-based or functional assay).

NanoDSF thermal unfolding temperature | Relative activity of maturated deamidase (% initial rate) | Binder
77.7 ° C. | – | B1
– | 69 | B2
– | > 100 | B3
– | 30 | B4
– | 49 | B5
– | 46 | B6
– | 27 | B7
– | 95 | B8
– | > 100 | B9
– | > 100 | B10
– | 28 | B11
– | 38 | B12
– | 52 | B13
– | 61 | B14
– | 31 | B15
– | 78 | B16
– | 55 | B17
– | 42 | B18
– | 46 | B19
– | 28 | B20
– | 41 | B21
– | 27 | B22
– | 64 | B23
– | 37 | B24
– | 40 | B25
– | > 100 | B26
– | 51 | B27

NanoDSF thermal unfolding temperature | Relative activity of maturated deamidase (% initial rate) | Binder
– | 54 | B28
– | 66 | B29
– | 31 | B30
– | 69 | B31
– | > 100 | B32
– | 51 | B33
78.5 ° C. | 33 | B34
– | 56 | B35
– | 95 | B36
– | 66 | B37
– | 58 | B38
– | 52 | B39
– | 71 | B40
– | 58 | B41
– | 28 | B42
– | 48 | B43
– | 32 | B44
– | 93 | B45
– | 31 | B46
– | 31 | B47
– | > 100 | B48
– | 76 | B49
– | > 100 | B50
– | 40 | B51
– | 85 | B52
– | 95 | B53
– | 33 | B54
